Experimental data from patent publication US20240270846A1 (published 2024).

Molecular target: T1, CD3 epsilon homodimer protein (UniProt P07766 23-126)
T1 construct: Immobilized on Sensor chip CM4 by amine coupling; construct not described; also called CD3 (CD3 epsilon)
Test: SPR Biacore T200, CD3 epsilon homodimer on CM4 chip, antibody as analyte;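 note: Amine-coupled CD3 epsilon homodimer, run at 25 °C in HBS-EP+ buffer, ratio is bound amount of each single-residue H chain variant over that of the parent antibody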

T1 sequence (P07766 23-126): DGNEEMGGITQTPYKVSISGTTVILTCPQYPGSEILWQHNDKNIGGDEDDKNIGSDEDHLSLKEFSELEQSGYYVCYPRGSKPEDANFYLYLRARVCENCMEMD

| ratio of amounts bound (Y/X vs CE115HA000) | Binder |
| --- | --- |
| 1.59 | CE115HA000 A99Y one-arm antibody (antibody, human IgG1, kappa, L234A L235A, N297A, name in Kabat numbering, one-arm antibody (one Fab)) heavy: QVQLVESGGGVVQPGRSLRLSCAASGFTFSNAWMHWVRQAPGKGLEWVAQIKAKSNNYATYYAESVKGRFTISRDDSKNSLYLQMNSLKTEDTAVYYCRYVHYGYYYGVDAWGQGTTVTVSSASTKGPSVFPLAPSSKSTSGGTAALGCLVKDYFPEPVTVSWNSGALTSGVHTFPAVLQSSGLYSLSSVVTVPSSSLGTQTYICNVNHKPSNTKVDKKVEPKSCDKTHTCPPCPAPEAAGGPSVFLFPPKPKDTLMISRTPEVTCVVVDVSHEDPEVKFNWYVDGVEVHNAKTKPREEQYASTYRVVSVLTVLHQDWLNGKEYKCKVSNKALPAPIEKTISKAKGQPREPQVYTLPPSRCELTKNQVSLSCAVKGFYPSDIAVEWESNGQPENNYKTTPPVLDSDGSFFLVSKLTVDKSRWQQGNVFSCSVMHEALHNHYTQKSLSLSPDYKDDDDK EPKSSDKTHTCPPCPAPELLGGPSVFLFPPKPKDTLMISRTPEVTCVVVDVSHEDPEVKFNWYVDGVEVHNAKTKPREEQYNSTYRVVSVLTVLHQDWLNGKEYKCKVSNKALPAPIEKTISKAKGQPREPQVCTLPPSRDELTKNQVSLWCLVKGFYPSDIAVEWESNGQPENNYKTTPPVLDSDGSFFLYSKLTVDKSRWQQGNVFSCSVMHEALHNRYTQKSLSLSP light: DIVMTQSPLSLPVTPGEPASISCRSSQSLVHSNRNTYLHWYQQKPGQAPRLLIYKVSNRFSGVPDRFSGSGSGTDFTLKISRVEAEDVGVYYCGQGTQVPYTFGQGTKLEIKRTVAAPSVFIFPPSDEQLKSGTASVVCLLNNFYPREAKVQWKVDNALQSGNSQESVTEQDSKDSTYSLSSTLTLSKADYEKHKVYACEVTHQGLSSPVTKSFNRGEC |
| 1.48 | CE115HA000 A102I one-arm antibody (antibody, human IgG1, kappa, L234A L235A, N297A, name in Kabat numbering, one-arm antibody (one Fab)) heavy: QVQLVESGGGVVQPGRSLRLSCAASGFTFSNAWMHWVRQAPGKGLEWVAQIKAKSNNYATYYAESVKGRFTISRDDSKNSLYLQMNSLKTEDTAVYYCRYVHYGAYYGVDIWGQGTTVTVSSASTKGPSVFPLAPSSKSTSGGTAALGCLVKDYFPEPVTVSWNSGALTSGVHTFPAVLQSSGLYSLSSVVTVPSSSLGTQTYICNVNHKPSNTKVDKKVEPKSCDKTHTCPPCPAPEAAGGPSVFLFPPKPKDTLMISRTPEVTCVVVDVSHEDPEVKFNWYVDGVEVHNAKTKPREEQYASTYRVVSVLTVLHQDWLNGKEYKCKVSNKALPAPIEKTISKAKGQPREPQVYTLPPSRCELTKNQVSLSCAVKGFYPSDIAVEWESNGQPENNYKTTPPVLDSDGSFFLVSKLTVDKSRWQQGNVFSCSVMHEALHNHYTQKSLSLSPDYKDDDDK EPKSSDKTHTCPPCPAPELLGGPSVFLFPPKPKDTLMISRTPEVTCVVVDVSHEDPEVKFNWYVDGVEVHNAKTKPREEQYNSTYRVVSVLTVLHQDWLNGKEYKCKVSNKALPAPIEKTISKAKGQPREPQVCTLPPSRDELTKNQVSLWCLVKGFYPSDIAVEWESNGQPENNYKTTPPVLDSDGSFFLYSKLTVDKSRWQQGNVFSCSVMHEALHNRYTQKSLSLSP light: DIVMTQSPLSLPVTPGEPASISCRSSQSLVHSNRNTYLHWYQQKPGQAPRLLIYKVSNRFSGVPDRFSGSGSGTDFTLKISRVEAEDVGVYYCGQGTQVPYTFGQGTKLEIKRTVAAPSVFIFPPSDEQLKSGTASVVCLLNNFYPREAKVQWKVDNALQSGNSQESVTEQDSKDSTYSLSSTLTLSKADYEKHKVYACEVTHQGLSSPVTKSFNRGEC |
| 0.91 | CE115HA000 A102Y one-arm antibody (antibody, human IgG1, kappa, L234A L235A, N297A, name in Kabat numbering, one-arm antibody (one Fab)) heavy: QVQLVESGGGVVQPGRSLRLSCAASGFTFSNAWMHWVRQAPGKGLEWVAQIKAKSNNYATYYAESVKGRFTISRDDSKNSLYLQMNSLKTEDTAVYYCRYVHYGAYYGVDYWGQGTTVTVSSASTKGPSVFPLAPSSKSTSGGTAALGCLVKDYFPEPVTVSWNSGALTSGVHTFPAVLQSSGLYSLSSVVTVPSSSLGTQTYICNVNHKPSNTKVDKKVEPKSCDKTHTCPPCPAPEAAGGPSVFLFPPKPKDTLMISRTPEVTCVVVDVSHEDPEVKFNWYVDGVEVHNAKTKPREEQYASTYRVVSVLTVLHQDWLNGKEYKCKVSNKALPAPIEKTISKAKGQPREPQVYTLPPSRCELTKNQVSLSCAVKGFYPSDIAVEWESNGQPENNYKTTPPVLDSDGSFFLVSKLTVDKSRWQQGNVFSCSVMHEALHNHYTQKSLSLSPDYKDDDDK EPKSSDKTHTCPPCPAPELLGGPSVFLFPPKPKDTLMISRTPEVTCVVVDVSHEDPEVKFNWYVDGVEVHNAKTKPREEQYNSTYRVVSVLTVLHQDWLNGKEYKCKVSNKALPAPIEKTISKAKGQPREPQVCTLPPSRDELTKNQVSLWCLVKGFYPSDIAVEWESNGQPENNYKTTPPVLDSDGSFFLYSKLTVDKSRWQQGNVFSCSVMHEALHNRYTQKSLSLSP light: DIVMTQSPLSLPVTPGEPASISCRSSQSLVHSNRNTYLHWYQQKPGQAPRLLIYKVSNRFSGVPDRFSGSGSGTDFTLKISRVEAEDVGVYYCGQGTQVPYTFGQGTKLEIKRTVAAPSVFIFPPSDEQLKSGTASVVCLLNNFYPREAKVQWKVDNALQSGNSQESVTEQDSKDSTYSLSSTLTLSKADYEKHKVYACEVTHQGLSSPVTKSFNRGEC |
| 1.43 | CE115HA000 A102V one-arm antibody (antibody, human IgG1, kappa, L234A L235A, N297A, name in Kabat numbering, one-arm antibody (one Fab)) heavy: QVQLVESGGGVVQPGRSLRLSCAASGFTFSNAWMHWVRQAPGKGLEWVAQIKAKSNNYATYYAESVKGRFTISRDDSKNSLYLQMNSLKTEDTAVYYCRYVHYGAYYGVDVWGQGTTVTVSSASTKGPSVFPLAPSSKSTSGGTAALGCLVKDYFPEPVTVSWNSGALTSGVHTFPAVLQSSGLYSLSSVVTVPSSSLGTQTYICNVNHKPSNTKVDKKVEPKSCDKTHTCPPCPAPEAAGGPSVFLFPPKPKDTLMISRTPEVTCVVVDVSHEDPEVKFNWYVDGVEVHNAKTKPREEQYASTYRVVSVLTVLHQDWLNGKEYKCKVSNKALPAPIEKTISKAKGQPREPQVYTLPPSRCELTKNQVSLSCAVKGFYPSDIAVEWESNGQPENNYKTTPPVLDSDGSFFLVSKLTVDKSRWQQGNVFSCSVMHEALHNHYTQKSLSLSPDYKDDDDK EPKSSDKTHTCPPCPAPELLGGPSVFLFPPKPKDTLMISRTPEVTCVVVDVSHEDPEVKFNWYVDGVEVHNAKTKPREEQYNSTYRVVSVLTVLHQDWLNGKEYKCKVSNKALPAPIEKTISKAKGQPREPQVCTLPPSRDELTKNQVSLWCLVKGFYPSDIAVEWESNGQPENNYKTTPPVLDSDGSFFLYSKLTVDKSRWQQGNVFSCSVMHEALHNRYTQKSLSLSP light: DIVMTQSPLSLPVTPGEPASISCRSSQSLVHSNRNTYLHWYQQKPGQAPRLLIYKVSNRFSGVPDRFSGSGSGTDFTLKISRVEAEDVGVYYCGQGTQVPYTFGQGTKLEIKRTVAAPSVFIFPPSDEQLKSGTASVVCLLNNFYPREAKVQWKVDNALQSGNSQESVTEQDSKDSTYSLSSTLTLSKADYEKHKVYACEVTHQGLSSPVTKSFNRGEC |
| 0.14 | CE115HA000 A102P one-arm antibody (antibody, human IgG1, kappa, L234A L235A, N297A, name in Kabat numbering, one-arm antibody (one Fab)) heavy: QVQLVESGGGVVQPGRSLRLSCAASGFTFSNAWMHWVRQAPGKGLEWVAQIKAKSNNYATYYAESVKGRFTISRDDSKNSLYLQMNSLKTEDTAVYYCRYVHYGAYYGVDPWGQGTTVTVSSASTKGPSVFPLAPSSKSTSGGTAALGCLVKDYFPEPVTVSWNSGALTSGVHTFPAVLQSSGLYSLSSVVTVPSSSLGTQTYICNVNHKPSNTKVDKKVEPKSCDKTHTCPPCPAPEAAGGPSVFLFPPKPKDTLMISRTPEVTCVVVDVSHEDPEVKFNWYVDGVEVHNAKTKPREEQYASTYRVVSVLTVLHQDWLNGKEYKCKVSNKALPAPIEKTISKAKGQPREPQVYTLPPSRCELTKNQVSLSCAVKGFYPSDIAVEWESNGQPENNYKTTPPVLDSDGSFFLVSKLTVDKSRWQQGNVFSCSVMHEALHNHYTQKSLSLSPDYKDDDDK EPKSSDKTHTCPPCPAPELLGGPSVFLFPPKPKDTLMISRTPEVTCVVVDVSHEDPEVKFNWYVDGVEVHNAKTKPREEQYNSTYRVVSVLTVLHQDWLNGKEYKCKVSNKALPAPIEKTISKAKGQPREPQVCTLPPSRDELTKNQVSLWCLVKGFYPSDIAVEWESNGQPENNYKTTPPVLDSDGSFFLYSKLTVDKSRWQQGNVFSCSVMHEALHNRYTQKSLSLSP light: DIVMTQSPLSLPVTPGEPASISCRSSQSLVHSNRNTYLHWYQQKPGQAPRLLIYKVSNRFSGVPDRFSGSGSGTDFTLKISRVEAEDVGVYYCGQGTQVPYTFGQGTKLEIKRTVAAPSVFIFPPSDEQLKSGTASVVCLLNNFYPREAKVQWKVDNALQSGNSQESVTEQDSKDSTYSLSSTLTLSKADYEKHKVYACEVTHQGLSSPVTKSFNRGEC |
| 1.43 | CE115HA000 D72V one-arm antibody (antibody, human IgG1, kappa, L234A L235A, N297A, name in Kabat numbering, one-arm antibody (one Fab)) heavy: QVQLVESGGGVVQPGRSLRLSCAASGFTFSNAWMHWVRQAPGKGLEWVAQIKAKSNNYATYYAESVKGRFTISRVDSKNSLYLQMNSLKTEDTAVYYCRYVHYGAYYGVDAWGQGTTVTVSSASTKGPSVFPLAPSSKSTSGGTAALGCLVKDYFPEPVTVSWNSGALTSGVHTFPAVLQSSGLYSLSSVVTVPSSSLGTQTYICNVNHKPSNTKVDKKVEPKSCDKTHTCPPCPAPEAAGGPSVFLFPPKPKDTLMISRTPEVTCVVVDVSHEDPEVKFNWYVDGVEVHNAKTKPREEQYASTYRVVSVLTVLHQDWLNGKEYKCKVSNKALPAPIEKTISKAKGQPREPQVYTLPPSRCELTKNQVSLSCAVKGFYPSDIAVEWESNGQPENNYKTTPPVLDSDGSFFLVSKLTVDKSRWQQGNVFSCSVMHEALHNHYTQKSLSLSPDYKDDDDK EPKSSDKTHTCPPCPAPELLGGPSVFLFPPKPKDTLMISRTPEVTCVVVDVSHEDPEVKFNWYVDGVEVHNAKTKPREEQYNSTYRVVSVLTVLHQDWLNGKEYKCKVSNKALPAPIEKTISKAKGQPREPQVCTLPPSRDELTKNQVSLWCLVKGFYPSDIAVEWESNGQPENNYKTTPPVLDSDGSFFLYSKLTVDKSRWQQGNVFSCSVMHEALHNRYTQKSLSLSP light: DIVMTQSPLSLPVTPGEPASISCRSSQSLVHSNRNTYLHWYQQKPGQAPRLLIYKVSNRFSGVPDRFSGSGSGTDFTLKISRVEAEDVGVYYCGQGTQVPYTFGQGTKLEIKRTVAAPSVFIFPPSDEQLKSGTASVVCLLNNFYPREAKVQWKVDNALQSGNSQESVTEQDSKDSTYSLSSTLTLSKADYEKHKVYACEVTHQGLSSPVTKSFNRGEC |
